Experimental findings from PMC7395093 are described below.

Sequences and labels used below:
B1: C-terminal GFP-tagged Atg16L1 WT (full-length) [mouse] / N-terminally V5 epitope-tagged (full-length) [mouse] (parent)
chain 1: MTSEMESSLEVSFSSSCAVSGASGCLPPARSRIFKIIVIGDSNVGKTCLTYRFCAGRFPDRTEATIGVDFRERAVDIDGERIKIQLWDTAGLERFRKSMVQHYYRNVHAVVFVYDMTNMASFHSLPAWIEECKQHLLANDIPRILVGNKCDLRSAIQVPTDLAQKFADTHSMPLFETSAKNPNDNDHVEAIFMTLAHKLKSHKPLMLSQLPDNRISLKPETKPAVTCWC
chain 2: MSSGLRAADFPRWKRHIAEELRRRDRLQRQAFEEIILQYTKLLEKSDLHSVLTQKLQAEKHDMPNRHEISPGHDGAWNDSQLQEMAQLRIKHQEELTELHKKRGELAQLVIDLNNQMQQKDKEIQMNEAKISEYLQTISDLETNCLDLRTKLQDLEVANQTLKDEYDALQITFTALEEKLRKTTEENQELVTRWMAEKAQEANRLNAENEKDSRRRQARLQKELAEAAKEPLPVEQDDDIEVIVDETSDHTEETSPVRAVSRAATKRLSQPAGGLLDSITNIFGRRSVSSIPVPQDIMDTHPASGKDVRVPTTASYVFDAHDGEVNAVQFSPGSRLLATGGMDRRVKLWEAFGDKCEFKGSLSGSNAGITSIEFDSAGAYLLAASNDFASRIWTVDDYRLRHTLTGHSGKVLSAKFLLDNARIVSGSHDRTLKLWDLRSKVCIKTVFAGSSCNDIVCTEQCVMSGHFDKKIRFWDIRSESVVREMELLGKITALDLNPERTELLSCSRDDLLKVIDLRTNAVKQTFSAPGFKCGSDWTRVVFSPDGSYVAAGSAEGSLYVWSVLTGKVEKVLSKQHSSSINAVAWAPSGLHVVSVDKGSRAVLWAQP
B2: N-terminally V5 epitope-tagged WT (full-length) [mouse] / C-terminal GFP-tagged Atg16L1 WT (full-length) [mouse] (parent)
chain 1: B1 chain 1 with L92Q
chain 2: B1 chain 2

Residue numbers refer to the chain shown, from its start.

One assay covers variants of B1. The assay is described as follows: GFP co-immunoprecipitation, western blot band quantification. The following applies: with N-terminally V5 epitope-tagged Rab33B Q92L (full-length) [mouse]; Overexpression was done in HEK293 cells; read off a plot.
As to chain 2 K198A, the response was 0.13 a.u. chain 2 N206K: the response was 0.12 a.u. As for chain 2 A202W, the response was determined as 0.06 a.u.

The same assay, now with this note: with C-terminal GFP-tagged Atg16L1 WT (full-length) [mouse]; Overexpression was done in HEK293 cells; read off a plot.
Turning to chain 1 F70E, the response turned out to be 0.32 a.u. Regarding chain 1 F70A, the response was 0.04 a.u.

In a further assay the parent is B2. The description is as above. The following applies: with C-terminal GFP-tagged Atg16L1 WT (full-length) [mouse]; Overexpression was done in HEK293 cells; read off a plot.
Take chain 1 T47N: the response is 0.6 a.u.
